According to patent US12569569B2, “Nano-delivery system and therapeutic and diagnostic use thereof” (NANOCARRY THERAPEUTICS LTD., priority 2020, dated 2026):

Assay: ICP-MS quantification of Au and Pt in mice brains after IV cisplatin+insulin-GNPs
Type: in vivo, Male BALB/c mice
Conditions: 8 hours post-administration
Protocol: Male BALB/c mice aged 6-7 weeks were administered intravenously through the tail vein with 200 μl of cisplatin+insulin-GNPs (approximately 0.1 mg of cisplatin according to ICP-MS measurement of Pt concentration) (n=3), or with equivalent dose of free Cisplatin (100 μl, 1 mg/ml) (n=3). Mice were sacrificed 8 hours post-administration. The mice underwent perfusion using 20 ml saline to remove all the particles residing within the blood vessels.
After sacrifice and perfusion, mice brains were extracted and weighted followed by ICP-MS analysis to quantify the amounts of Au and Pt within the brain.

## cisplatin+insulin-GNPs: 20 nm GNPs with mPEG-SH 5 kDa, PEG 1 kDa conjugated to cisplatin, PEG 5 kDa conjugated to insulin (60:20:20)
IV 200 μl, after perfusion
  Au and Pt within the brain (ICP-MS): both gold and platin were found within the brains
IV
  Amount of Pt within the brain compared to equivalent dose of free cisplatin: significantly higher
